From IntAct's records for PubMed 25487150

Assays:
pp11_schpo dis2 [1] = target: pp11_schpo dis2 (UniProt P13681)
pp11_schpo dis2 [2] = target: pp11_schpo dis2 (UniProt P13681); remark: listed apart in the source
pp1a_human PPP1CA = pp1a_human PPP1CA (UniProt P62136)
pp1g_human PPP1CC = pp1g_human PPP1CC (UniProt P36873)
pp1b_human PPP1CB = pp1b_human PPP1CB (UniProt P62140)

Sequence of pp11_schpo dis2 (P13681 whole entry): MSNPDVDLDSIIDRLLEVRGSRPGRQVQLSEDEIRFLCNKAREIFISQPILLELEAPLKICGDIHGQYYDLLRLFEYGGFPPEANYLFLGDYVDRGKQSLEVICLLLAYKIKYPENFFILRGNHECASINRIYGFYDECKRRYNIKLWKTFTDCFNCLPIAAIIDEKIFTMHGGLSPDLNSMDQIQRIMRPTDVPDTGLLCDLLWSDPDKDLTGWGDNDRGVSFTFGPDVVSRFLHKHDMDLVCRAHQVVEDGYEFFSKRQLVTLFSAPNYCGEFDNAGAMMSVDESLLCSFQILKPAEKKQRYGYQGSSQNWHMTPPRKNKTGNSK
Sequence of Serine/threonine-protein phosphatase 2A 56 kDa regulatory subunit delta 1 isoform (Schizosaccharomyces pombe (strain ATCC 38366 / 972)), Q10428 K379A;V381A;F383A (Q10428 whole entry K379A/V381A/F383A, canonical isoform): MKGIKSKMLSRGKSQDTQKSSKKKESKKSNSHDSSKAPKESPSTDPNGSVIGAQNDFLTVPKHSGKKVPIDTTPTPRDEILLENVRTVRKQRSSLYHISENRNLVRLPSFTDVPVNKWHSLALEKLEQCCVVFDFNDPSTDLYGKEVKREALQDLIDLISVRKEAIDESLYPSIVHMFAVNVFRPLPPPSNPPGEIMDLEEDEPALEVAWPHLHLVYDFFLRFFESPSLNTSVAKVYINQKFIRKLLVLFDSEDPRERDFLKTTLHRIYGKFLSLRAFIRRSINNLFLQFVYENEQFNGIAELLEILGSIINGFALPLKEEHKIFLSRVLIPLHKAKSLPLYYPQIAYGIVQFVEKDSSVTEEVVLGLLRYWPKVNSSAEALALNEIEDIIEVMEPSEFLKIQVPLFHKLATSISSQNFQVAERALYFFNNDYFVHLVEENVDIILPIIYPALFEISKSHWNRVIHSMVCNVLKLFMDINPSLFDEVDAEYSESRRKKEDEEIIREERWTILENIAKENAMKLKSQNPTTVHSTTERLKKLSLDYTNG
Sequence of Serine/threonine-protein phosphatase 2A 56 kDa regulatory subunit delta 1 isoform (Schizosaccharomyces pombe (strain ATCC 38366 / 972)), Q10428 G367V (Q10428 whole entry G367V, canonical isoform): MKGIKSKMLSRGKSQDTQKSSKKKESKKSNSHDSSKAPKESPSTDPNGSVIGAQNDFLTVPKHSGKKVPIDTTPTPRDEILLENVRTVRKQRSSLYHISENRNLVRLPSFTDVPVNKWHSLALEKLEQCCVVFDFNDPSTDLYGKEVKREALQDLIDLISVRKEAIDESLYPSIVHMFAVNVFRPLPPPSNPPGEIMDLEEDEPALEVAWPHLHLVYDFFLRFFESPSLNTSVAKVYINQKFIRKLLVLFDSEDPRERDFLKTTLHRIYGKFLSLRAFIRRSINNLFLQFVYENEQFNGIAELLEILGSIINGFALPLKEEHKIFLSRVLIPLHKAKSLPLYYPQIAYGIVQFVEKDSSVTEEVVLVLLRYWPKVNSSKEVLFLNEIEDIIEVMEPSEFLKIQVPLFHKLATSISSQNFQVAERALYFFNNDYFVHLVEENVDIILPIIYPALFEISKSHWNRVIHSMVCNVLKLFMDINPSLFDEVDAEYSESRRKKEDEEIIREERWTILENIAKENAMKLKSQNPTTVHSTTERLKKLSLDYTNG
Sequence of Serine/threonine-protein phosphatase 2A 56 kDa regulatory subunit delta 1 isoform (Schizosaccharomyces pombe (strain ATCC 38366 / 972)), Q10428 G367A;V381A (Q10428 whole entry G367A/V381A, canonical isoform): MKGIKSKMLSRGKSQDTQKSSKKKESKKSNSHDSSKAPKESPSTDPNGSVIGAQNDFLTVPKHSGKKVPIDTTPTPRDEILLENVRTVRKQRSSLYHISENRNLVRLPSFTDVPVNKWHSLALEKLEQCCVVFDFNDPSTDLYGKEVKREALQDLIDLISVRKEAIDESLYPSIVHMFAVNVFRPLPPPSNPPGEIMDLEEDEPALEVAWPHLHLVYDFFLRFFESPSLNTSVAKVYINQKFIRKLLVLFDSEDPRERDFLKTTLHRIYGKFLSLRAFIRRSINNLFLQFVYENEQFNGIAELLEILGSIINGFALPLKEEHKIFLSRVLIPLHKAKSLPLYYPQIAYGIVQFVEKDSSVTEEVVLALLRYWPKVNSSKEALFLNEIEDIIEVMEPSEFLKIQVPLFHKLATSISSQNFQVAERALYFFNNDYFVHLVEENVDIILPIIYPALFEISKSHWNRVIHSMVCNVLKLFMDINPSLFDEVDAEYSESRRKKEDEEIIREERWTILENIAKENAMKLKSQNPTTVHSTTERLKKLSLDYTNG
Sequence of Serine/threonine-protein phosphatase 2A 56 kDa regulatory subunit delta 1 isoform (Schizosaccharomyces pombe (strain ATCC 38366 / 972)), Q10428 G367A (Q10428 whole entry G367A, canonical isoform): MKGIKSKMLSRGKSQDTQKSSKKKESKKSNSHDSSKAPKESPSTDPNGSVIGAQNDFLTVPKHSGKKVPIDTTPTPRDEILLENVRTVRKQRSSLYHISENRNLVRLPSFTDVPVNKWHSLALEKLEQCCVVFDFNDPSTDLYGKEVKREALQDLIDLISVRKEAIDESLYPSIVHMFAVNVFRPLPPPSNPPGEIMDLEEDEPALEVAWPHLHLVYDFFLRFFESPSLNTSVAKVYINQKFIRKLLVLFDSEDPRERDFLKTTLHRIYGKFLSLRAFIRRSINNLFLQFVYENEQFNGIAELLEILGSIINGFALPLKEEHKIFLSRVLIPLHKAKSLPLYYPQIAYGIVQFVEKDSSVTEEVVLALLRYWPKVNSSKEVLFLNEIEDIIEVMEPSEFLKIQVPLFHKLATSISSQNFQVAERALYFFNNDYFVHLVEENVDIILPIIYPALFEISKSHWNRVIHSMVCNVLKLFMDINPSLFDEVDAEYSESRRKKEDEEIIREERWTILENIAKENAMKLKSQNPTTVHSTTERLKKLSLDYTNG
Sequence of Serine/threonine-protein phosphatase 2A 56 kDa regulatory subunit delta 1 isoform (Schizosaccharomyces pombe (strain ATCC 38366 / 972)), Q10428 S378D (Q10428 whole entry S378D, canonical isoform): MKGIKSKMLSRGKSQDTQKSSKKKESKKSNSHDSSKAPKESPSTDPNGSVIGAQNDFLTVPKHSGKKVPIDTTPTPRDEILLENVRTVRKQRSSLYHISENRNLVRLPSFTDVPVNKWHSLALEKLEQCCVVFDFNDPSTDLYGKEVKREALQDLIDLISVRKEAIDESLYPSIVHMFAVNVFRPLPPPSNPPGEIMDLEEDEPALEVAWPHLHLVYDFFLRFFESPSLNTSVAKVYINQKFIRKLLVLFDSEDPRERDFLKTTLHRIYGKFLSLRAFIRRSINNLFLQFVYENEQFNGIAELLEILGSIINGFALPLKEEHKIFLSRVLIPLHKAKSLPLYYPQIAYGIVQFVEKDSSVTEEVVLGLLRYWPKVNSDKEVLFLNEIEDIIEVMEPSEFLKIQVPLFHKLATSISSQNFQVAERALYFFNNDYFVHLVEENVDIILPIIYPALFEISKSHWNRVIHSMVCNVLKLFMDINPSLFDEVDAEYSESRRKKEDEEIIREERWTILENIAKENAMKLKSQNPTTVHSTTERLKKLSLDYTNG
Sequence of pp1g_human PPP1CC (P36873 whole entry, looked up): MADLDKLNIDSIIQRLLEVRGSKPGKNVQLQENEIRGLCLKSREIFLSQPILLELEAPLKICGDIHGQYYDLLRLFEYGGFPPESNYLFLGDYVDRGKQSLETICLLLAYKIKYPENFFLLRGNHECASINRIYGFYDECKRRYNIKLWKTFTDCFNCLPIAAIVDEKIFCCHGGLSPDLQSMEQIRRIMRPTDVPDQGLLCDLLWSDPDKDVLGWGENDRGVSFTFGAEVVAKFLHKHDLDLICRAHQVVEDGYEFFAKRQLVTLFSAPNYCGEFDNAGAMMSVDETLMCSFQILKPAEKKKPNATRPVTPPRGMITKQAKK
Sequence of Serine/threonine-protein phosphatase 2A 56 kDa regulatory subunit delta 1 isoform (Schizosaccharomyces pombe (strain ATCC 38366 / 972)), Q10428 G367V;K379A;V381A;F383A (Q10428 whole entry G367V/K379A/V381A/F383A, canonical isoform): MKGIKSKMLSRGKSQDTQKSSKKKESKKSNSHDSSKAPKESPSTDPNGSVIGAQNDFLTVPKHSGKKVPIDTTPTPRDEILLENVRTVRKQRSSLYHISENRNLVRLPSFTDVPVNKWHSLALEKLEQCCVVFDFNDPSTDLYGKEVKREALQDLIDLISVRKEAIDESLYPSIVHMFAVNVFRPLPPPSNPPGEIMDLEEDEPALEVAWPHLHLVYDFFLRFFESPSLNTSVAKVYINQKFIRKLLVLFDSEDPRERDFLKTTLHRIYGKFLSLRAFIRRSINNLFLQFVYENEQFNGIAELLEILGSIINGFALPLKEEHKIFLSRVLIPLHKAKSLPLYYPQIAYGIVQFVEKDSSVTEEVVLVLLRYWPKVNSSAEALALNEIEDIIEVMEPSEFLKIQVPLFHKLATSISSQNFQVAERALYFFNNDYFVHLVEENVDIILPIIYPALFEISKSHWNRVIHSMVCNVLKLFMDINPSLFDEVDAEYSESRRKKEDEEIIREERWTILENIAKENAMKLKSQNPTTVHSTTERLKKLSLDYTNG
Sequence of Serine/threonine-protein phosphatase 2A 56 kDa regulatory subunit delta 1 isoform (Schizosaccharomyces pombe (strain ATCC 38366 / 972)), Q10428 G367V;V381A (Q10428 whole entry G367V/V381A, canonical isoform): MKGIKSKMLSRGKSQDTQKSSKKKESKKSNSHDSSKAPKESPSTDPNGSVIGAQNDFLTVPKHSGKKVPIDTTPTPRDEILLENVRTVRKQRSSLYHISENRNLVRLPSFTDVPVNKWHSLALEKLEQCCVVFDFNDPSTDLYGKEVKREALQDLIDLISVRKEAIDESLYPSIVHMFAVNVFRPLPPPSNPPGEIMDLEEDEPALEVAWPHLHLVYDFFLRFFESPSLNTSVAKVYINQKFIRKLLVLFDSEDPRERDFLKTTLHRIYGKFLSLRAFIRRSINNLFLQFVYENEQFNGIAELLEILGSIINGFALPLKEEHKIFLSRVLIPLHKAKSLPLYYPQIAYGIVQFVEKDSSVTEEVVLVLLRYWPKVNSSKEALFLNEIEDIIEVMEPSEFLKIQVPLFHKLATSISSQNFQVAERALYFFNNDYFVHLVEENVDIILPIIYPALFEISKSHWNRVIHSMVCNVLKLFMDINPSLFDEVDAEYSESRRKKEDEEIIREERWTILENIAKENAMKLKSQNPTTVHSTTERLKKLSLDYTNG
Sequence of pp1a_human PPP1CA (P62136 whole entry): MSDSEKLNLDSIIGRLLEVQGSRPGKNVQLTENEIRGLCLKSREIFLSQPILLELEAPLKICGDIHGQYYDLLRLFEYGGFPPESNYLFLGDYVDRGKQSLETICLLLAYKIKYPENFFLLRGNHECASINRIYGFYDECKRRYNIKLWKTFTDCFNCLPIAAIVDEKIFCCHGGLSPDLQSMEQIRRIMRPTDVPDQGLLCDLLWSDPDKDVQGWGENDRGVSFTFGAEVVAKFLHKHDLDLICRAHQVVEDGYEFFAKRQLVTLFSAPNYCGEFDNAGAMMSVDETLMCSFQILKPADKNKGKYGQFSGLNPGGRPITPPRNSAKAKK

Substance	effect of a mutation on the interaction (pp11_schpo dis2 [1])	effect of a mutation on the interaction (pp11_schpo dis2 [2])	also measured
Serine/threonine-protein phosphatase 2A 56 kDa regulatory subunit delta 1 isoform (Schizosaccharomyces pombe (strain ATCC 38366 / 972)), Q10428 G367A	decreasing interaction strength	disrupting interaction strength	
Serine/threonine-protein phosphatase 2A 56 kDa regulatory subunit delta 1 isoform (Schizosaccharomyces pombe (strain ATCC 38366 / 972)), Q10428 G367A;K379A;V381A;F383A	disrupting interaction strength		
Serine/threonine-protein phosphatase 2A 56 kDa regulatory subunit delta 1 isoform (Schizosaccharomyces pombe (strain ATCC 38366 / 972)), Q10428 G367A;V381A	decreasing interaction strength	disrupting interaction strength	
Serine/threonine-protein phosphatase 2A 56 kDa regulatory subunit delta 1 isoform (Schizosaccharomyces pombe (strain ATCC 38366 / 972)), Q10428 G367V	decreasing interaction strength	disrupting interaction strength	
Serine/threonine-protein phosphatase 2A 56 kDa regulatory subunit delta 1 isoform (Schizosaccharomyces pombe (strain ATCC 38366 / 972)), Q10428 G367V;K379A;V381A;F383A	disrupting interaction strength		
Serine/threonine-protein phosphatase 2A 56 kDa regulatory subunit delta 1 isoform (Schizosaccharomyces pombe (strain ATCC 38366 / 972)), Q10428 G367V;V381A	decreasing interaction strength		
Serine/threonine-protein phosphatase 2A 56 kDa regulatory subunit delta 1 isoform (Schizosaccharomyces pombe (strain ATCC 38366 / 972)), Q10428 K379A;V381A;F383A	decreasing interaction strength	disrupting interaction strength	
Serine/threonine-protein phosphatase 2A 56 kDa regulatory subunit delta 1 isoform (Schizosaccharomyces pombe (strain ATCC 38366 / 972)), Q10428 S378D	disrupting interaction strength		
Serine/threonine-protein phosphatase 2A 56 kDa regulatory subunit gamma isoform (Homo sapiens) (from UniProt Q13362) L289A;L290A;V302A;F304A			effect of a mutation on the interaction (pp1a_human PPP1CA): disrupting interaction strength; effect of a mutation on the interaction (pp1g_human PPP1CC): disrupting interaction strength; effect of a mutation on the interaction (pp1b_human PPP1CB): disrupting interaction strength
